Square brackets hold non-standard residues; d marks the D form. pY = N[C@@H](Cc1ccc(OP(=O)(O)O)cc1)C(=O)O

For experiment [1], the target named is SHP2^1–220 (tandem SH2, both SH2 domains) (human) (UniProt Q06124). Kind of experiment: SEC-MALS.
For experiment [2] the target is unchanged. Kind of experiment: NMR DOSY.
Experiment [3] addresses T1, N-terminal SH2 domain of SHP2 (SHP2^1–105) (human, UniProt Q06124-2 1-105).
T1 sequence: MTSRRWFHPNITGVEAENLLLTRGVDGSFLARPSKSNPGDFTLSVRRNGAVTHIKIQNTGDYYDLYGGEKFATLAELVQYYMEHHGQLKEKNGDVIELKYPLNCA
Kind of experiment: ITC.

Experiment [4] addresses T2, C-terminal SH2 domain of SHP2 (SHP2^106–220) (human, UniProt Q06124-2 106-220).
T2 sequence: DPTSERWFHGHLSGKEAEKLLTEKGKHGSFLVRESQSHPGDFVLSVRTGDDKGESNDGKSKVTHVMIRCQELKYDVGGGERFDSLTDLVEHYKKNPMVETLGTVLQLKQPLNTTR
Kind of experiment: ITC.

In the case of “diphosphorylated bidentate peptide ITSM-[dPEG4]2-ITSM, Ac-EQTE(pY)ATIVFP-(dPEG4)-(dPEG4)-EQTE(pY)ATIVFP-NH2”, the stoichiometry N (peptide per protein) in experiment [1] turned out to be 1. As to “diphosphorylated bidentate peptide ITIM-[dPEG4]2-ITSM, Ac-FSVD(pY)GELDFQ-(dPEG4)-(dPEG4)-EQTE(pY)ATIVFP-NH2”, the stoichiometry N (peptide per protein) in experiment [2] turned out to be 1.

B1: PD-1 ITSM phosphopeptide, Ac-EQTE(pY)ATIVFP-NH2 (peptide)
peptide: Ac-EQTE[pY]ATIVFP-NH2
SMILES: CC[C@H](C)[C@H](NC(=O)[C@@H](NC(=O)[C@H](C)NC(=O)[C@H](Cc1ccc(OP(=O)(O)O)cc1)NC(=O)[C@H](CCC(=O)O)NC(=O)[C@@H](NC(=O)[C@H](CCC(N)=O)NC(=O)[C@H](CCC(=O)O)NC(C)=O)[C@@H](C)O)[C@@H](C)O)C(=O)N[C@H](C(=O)N[C@@H](Cc1ccccc1)C(=O)N1CCC[C@H]1C(N)=O)C(C)C
Regarding B1, the equilibrium dissociation constant (Kd) in experiment [3] came out at 167 nM; in experiment [4], 13 nM.

B2: PD-1 ITIM phosphopeptide, Ac-FSVD(pY)GELDFQ-NH2 (peptide)
peptide: Ac-FSVD[pY]GELDFQ-NH2
SMILES: CC(=O)N[C@@H](Cc1ccccc1)C(=O)N[C@@H](CO)C(=O)N[C@H](C(=O)N[C@@H](CC(=O)O)C(=O)N[C@@H](Cc1ccc(OP(=O)(O)O)cc1)C(=O)NCC(=O)N[C@@H](CCC(=O)O)C(=O)N[C@@H](CC(C)C)C(=O)N[C@@H](CC(=O)O)C(=O)N[C@@H](Cc1ccccc1)C(=O)N[C@@H](CCC(N)=O)C(N)=O)C(C)C
As for B2, the figures for the Kd in experiment [3] and in experiment [4] were 1900 nM and 26400 nM, respectively.

Values taken from PMC6994217 (Science Advances, 2020).
